These results are taken from paper PMC9769388 (Journal of Virology, 2022).

The target of this experiment is T1, soluble CD4 (D1D2 domains, residues 1 to 186).
T1 construct: also called sCD4; source: Expi293F, purified (StrepTrap HP, SEC)
The experiment in a line: cryo-EM structure; Fab, soluble SOSIP trimer and sCD4 incubated at a molar ratio of 3.6:1:3.6 Fab/Env/sCD4 at room temperature for 4 h; single-particle cryo-EM of the ternary complex. The following applies: both partners purified.

B1: CG10 Fab (Fab, V domains shown)
VH: QVQLKQSGTELVRPGTSVKMSCKAAGYTFTDYWIGWVKQRPGHGLEWIGDFYPGGDYTLYSENFMGKASLTADTSSNTAYMQLSSLTSEDSAIYYCARGHYYGYSYAWFAYWGQGTLVTVSS
VL: DIVLTQSPASLAVSLGQRATISCKASQSVDYDGDSYMNWYQQKPGQPPKLLIYAASNLESGIPARFSGSGSGTDFTLNIHPVGEEDAATYYCQQSHEDPWTFGGGTMLEIK
notes: source: Expi293F, purified (Ni-NTA, SEC)
For the molecule B1, the binding result is reported as “binds”.
